According to article PMC3491808 (Journal of biomolecular NMR, 2011):
Non-standard residues stand in square brackets, D forms with d. No end group written: not given here. pT = C[C@@H](OP(=O)(O)O)[C@H](N)C(=O)O

Target: Pin1-PPIase (isolated catalytic PPIase domain of Pin1, residues 46-163) (human, UniProt Q13526 46-163)
Assay: NMR titration

Pin1-PPIase (isolated catalytic PPIase domain of Pin1, residues 46-163), sequence (Q13526 46-163): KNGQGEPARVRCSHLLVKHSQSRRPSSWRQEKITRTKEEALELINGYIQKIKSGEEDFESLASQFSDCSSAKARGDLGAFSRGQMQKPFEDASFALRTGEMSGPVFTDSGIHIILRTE

Kd: 1300 µM
Binder: GVVEVDAAV[pT]PEERHLSKMQQNGY (peptide, UniProt P05067-4 659-682, looked up) [pAPP659-682 (24-residue phosphopeptide, residues 659-682 of APP phosphorylated at T668)]
